Reference: the DeepSol protein solubility set

Assay: soluble on expression in E. coli; label from the status in PepcDB or PDB records

| Sequence | soluble on expression in E. coli |
| --- | --- |
| MFCVRCGSSDSELYEGLCRDCFLEDYSILRIPDRIEVRVCSHCRAKFISGQWLDEGLPDEEIVYRALEDSISWDEPVENPEIELEIMQERGTIYRCLVEVDAEVLGKRLSQEYEVEVRITNTVCPTCSKQSSGYYEAVIQLRADGRELAETEIETADRVVQRTLLKLSRRDKLAYLPQRVEVKEGVDYYIGSHKSARKVVDAIREKLGGITMESPRLMGQDKSTGKGLYRTWISLRLANFRVGDFLSHHNRILAVIDLRKKGVSVRDLETREVKNILWGEYEDMDVVGRADDVKTTTVTSRSPGMIQILHPETFEPVDLEADSYTSTLDIGEQVPVIEIDKRLYIIEDEAEELEHHHHHH | soluble |
| MNQPFLSVVIATFNVAEVLRECLHSLASQTFRDFEVVIQDGASTDGTLAVAQEAAGRLPRLSLASVADSGIYDAWNRALPRVTGDWVLFLGSDDTLAGPDVLAQCARRLADLPPQVLYACGDALEVYPDGSSRAVTCTAEGATRRMADHIPFCHSSLWHRACLFEARHFDATLRIAADYDLICRTWPHDGVGHTLGITVTHMGVGGVSSSPAHRLRTQWELVRVAARHGHGAFSRRRLVPLCKAVGLWVLCRLAGRRASVMLDRLRVMRGLPPCWTTADPARVGGRDSARGDALEHHHHHH | not soluble |
| MASLPILTVLEQSQVSPPPDTLGDKSLQLTFFDFFWLRSPPINNLFFYELPITRSQFTETVVPNIKHSLSITLKHFYPFVGKLVVYPAPTKKPEICYVEGDSVAVTFAECNLDLNELTGNHPRNCDKFYDLVPILGESTRLSDCIKIPLFSVQVTLFPNQGIAIGITNHHCLGDASTRFCFLKAWTSIARSGNNDESFLANGTRPLYDRIIKYPMLDEAYLKRAKVESFNEDYVTQSLAGPSDKLRATFILTRAVINQLKDRVLAQLPTLEYVSSFTVACAYIWSCIAKSRNDKLQLFGFPIDRRARMKPPIPTAYFGNCVGGCAAIAKTNLLIGKEGFITAAKLIGENLHKTLTDYKDGVLKDDMESFNDLVSEGMPTTMTWVSGTPKLRFYDMDFGWGKPKKLETVSIDHNGAISINSCKESNEDLEIGVCISATQMEDFVHIFDDGLKAYL | soluble |
| MGSDKIHHHHHHMSFEKTSELIEKSRELQEVYQQLVEDVGLDLWRFCRYLTGSPWDGEDLYQETLVKAFGSLYQRWQPTNPKAYLFRIATNTWIDQCRKAKRIVGTVDEMEGPVEEFSNDLELEHAFTRLFTLFPPRQVAVFLLKDVFAFTAEEVASMVRSTSNGVYATSSRVRKKLKETASLEEELSSNGRPSPEQSEVIQQYLEAFNAGDLGKLFDLMSDEVHIDASLGFQEYSKEEMKKGSMQYGLPGFRAEPFVLWGKTVLVVLVDRDAGPLIHDIQFQEIENGKIVYHKSYYFCKEFLMGAAKELQLQVQLDKAAVHWRHSLDEGEL | not soluble |
| MWNETVEHENAGNGWAAGESSFMTDRKPDSKATTLGERLPVPVTISNLIEHFSAQDDKYVVGTFRFATVLTVGIVKDISQDGTTYTYDLCDPNNTEMEYRTLKYDNEGSTFDHSSIVEGTRVRAIGKLKGFDGNNTIMLFNITPVEDDKDFTIFELEAEAARLFFQKNVSEKLKSVDSDGFQGMLAPPKSRMSQTSHQSSQGSDTKERLYAQPQKVMTGANQGDVLRERITAVLMAVPEGSRDEGRHVSWIAEQIQETNISIVRKCVGEMVENGLVYTTVDEETVSAI | not soluble |
| MKIQMKTPLVELDGDEMTRVLWPLIKDKLLLPFIDLQTEYYDLGIEERDRTNDQITIDAAEAIKKYGVGVKNATITPNQDRVEEYGLKEQWKSPNATVRAMLDGTVFRKPIMVKNIKPSVRSWQKPIVVGRHAYGDFYKNAEIFAEAGGKLEIVVTDKNGKETRQTIMEVDEPAIVQGIHNTVASIGHFARACFEYSLDQKIDCWFATKDTISKQYDQRFKIIFEEIFAQEYKEKFAAAGIEYFYTLIDDVVARMMKTEGGMLWACKNYDGDVMSDMVASAFGSLAMMSSVLVSPYGYFEYEAAHGTVQRHYYQHLKGERTSTNPVALIYAWTGALRKRGELDGTPDLCAFCDSLEAITIECIESGYMTGDLARICEPAAIKVLDSIEFIDELGKRLQQLNK | soluble |
| MHRSFPRLVRSQGNLLKGMFGKSGEKEAVKQLTLEEQESLRKTLPSIRARESTQVTASADSVTEFDDDLLTMSRIDTDAIRARGFLKYTQNYVPGVDVKNQVLEAASSCLRSAGVKSENVDQYKFVEGDNSVKFELLNRLGKSIEHWPTNGKLLHLETVADVVEFYQTPVKNVTKYTEMARDENKPKNVSIMEHAARFHPEDTHMYHGGITAFPGSGGEVLSLRQKRLLRQFQPKKEWFDYDDQTFDYTRPDKNMPWDPEVANQMDKYTDKRYNLKTKQFTRIRQ | not soluble |
| MGSDKIHHHHHHMDVIDAVNRRMSVRAFKPDPVDAGLIRDLLEAAARAPSGGNLQPWRVQVVGGAPLEALKAAMLQRVASPDPTEYDVYPANLWEPLRSRRFQVGEDMYGALGIPREDKLQRLQWFANNGQGFGAPVQLFFSIDRRCGPPQWSDVGMLMQTFMLLAVERGLDTCPQEFWSHYNKLVDEHVGLPEGHMLFSGMALGYRDADAPVNNFRSRRAPFEEWAELKGF | not soluble |
| MISNQILQNTIEGLKGISRIDFCVLDTEGKALATTFEDTWNYESAVLSFVESPADSQVIQGCQFFKIFDEQQLEYVLLAGGESEDVYMLGKIAAFQVQSLLVAYKERFDKDNFIKNLLLDNLLLVDIYNRAKKLHIDTEAKRVIFIIETSHEKDSVALDNVRNLLGGKSRDFVTAVDEKNIIVVKELADKAGSRELEKMAKEMMEILRAESEDDKIHIAYGTVVNDIKEVSKSYKEAKLALDVGKIFFDEKDIVAYSTLGIGRLIYQLPIPLCKMFIKEIFEGKSPDEFDEETLTTINKFFENSLNVSETSRQLYIHRNTLVYRLDKLQKSTGLDLRVFEDAITFKIALMVVKYMKYMETLEY | not soluble |
| MAHHHHHHMCCTFWGLRLDNTCNNMKSVDIIKCDMCFFSHDGLFLIYTIINKIFVIQVKNLEMYRIYVESYKVDDIKLSSDNIHFLTLIKNKGCVCIYSFYKNNLINKICDYFQTYDHSFFLSKHNNIGIVKYEKKCLTIYNMNNPEKCLINIENIKYQNKGYCSNYINTIFACLVENKKDVNILLLSLFNYTIIKIIKCINFFPNDILFSKSDHIIAYSNKNRSLHIYSIDGDLLHVYKYAEDLGGNTKNVKKKKKKKKKSKFCAWKILKKSSFSFWITHCK | not soluble |
| MTEVYDLEITTNATDFPMEKKYPAGMSLNDLKKKLELVVGTTVDSMRIQLFDGDDQLKGELTDGAKSLKDLGVRDGYRIHAVDVTGGNEDFKDESMVEKYEMSDDTYGKRTDSVRAWKKKMQEEQGSAAPMENESDKLNEEAAKNIMVGNRCEVTVGAQMARRGEVAYVGATKFKEGVWVGVKYDEPVGKNDGSVAGVRYFDCDPKYGGFVRPVDVKVGDFPELSIDEI | soluble |
| SSNEHGPVKRSSQSTLERSEQQIRAASSLEELLRITHSEDWKLWRCRLRLKSFTSMDSRSASHRSTRFAATFYDIETLKVIDEEWQRTQCSPRETCVEVASELGKSTNTFFKPPCVNVFRCGGCCNEESLICMNTSTSYISKQLFEISVPLTSVPELVPVKVANHTGCKCLPTAPRHPYSIIRRSIQIPEEDRCSHSKKLCPIDMLWDSNKCKCVLQEENPLAGTEDHSHLQEPALCGPHMMFDEDRCECVCKTPCPKDLIQHPKNCSCFECKESLETCCQKHKLFHPDTCSCEDRCPFHTRPCASGKTACAKHCRFPKEKRAAQGPHSRKNP | soluble |
| MFKKFTREDVHSRSKVKSSIQRTLKAKLVKQYPKIEDVIDELIPKKSQIELIKCEDKIQLYSVDGEVLFFQKFDELIPSLKLVHKFPEAYPTVQVDRGAIKFVLSGANIMCPGLTSAGADLPPAPGYEKGTIVVINAENKENALAIGELMMGTEEIKSVNKGHSIELIHHLGDPLWNFSVE | not soluble |
| AHHHHHHGSNTEKYLAKGLEDVYIDQTNICYIDGKEGKLYYRGYSVEELAELSTFEEVVYLLWWGKLPSLSELENFKKELAKSRGLPKEVIEIMEALPKNTHPMGALRTIISYLGNIDDSGDIPVTPEEVYRIGISVTAKIPTIVANWYRIKNGLEYVPPKEKLSHAANFLYMLHGEEPPKEWEKAMDVALILYAEHEINASTLAVMTVGSTLSDYYSAILAGIGALKGPIHGGAVEEAIKQFMEIGSPEKVEEWFFKALQQKRKIMGAGHRVYKTYDPRARIFKKYASKLGDKKLFEIAERLERLVEEYLSKKGISINVDYWSGLVFYGMKIPIELYTTIFAMGRIAGWTAHLAEYVSHNRIIRPRLQYVGEIGKKYLPIELRR | not soluble |
